Ends that are not written are not given here.
Legend:
[1] = target: MBTD1(140-562)-(GSA)6-EPC1(644-672) fusion protein (UniProt Q05BQ5 140-562; Q9H2F5 644-672); assay: ITC
His-MBTD1 = His-MBTD1 (UniProt Q05BQ5 1-628); assay: ITC
Chain of His-MBTD1 (Q05BQ5 whole entry): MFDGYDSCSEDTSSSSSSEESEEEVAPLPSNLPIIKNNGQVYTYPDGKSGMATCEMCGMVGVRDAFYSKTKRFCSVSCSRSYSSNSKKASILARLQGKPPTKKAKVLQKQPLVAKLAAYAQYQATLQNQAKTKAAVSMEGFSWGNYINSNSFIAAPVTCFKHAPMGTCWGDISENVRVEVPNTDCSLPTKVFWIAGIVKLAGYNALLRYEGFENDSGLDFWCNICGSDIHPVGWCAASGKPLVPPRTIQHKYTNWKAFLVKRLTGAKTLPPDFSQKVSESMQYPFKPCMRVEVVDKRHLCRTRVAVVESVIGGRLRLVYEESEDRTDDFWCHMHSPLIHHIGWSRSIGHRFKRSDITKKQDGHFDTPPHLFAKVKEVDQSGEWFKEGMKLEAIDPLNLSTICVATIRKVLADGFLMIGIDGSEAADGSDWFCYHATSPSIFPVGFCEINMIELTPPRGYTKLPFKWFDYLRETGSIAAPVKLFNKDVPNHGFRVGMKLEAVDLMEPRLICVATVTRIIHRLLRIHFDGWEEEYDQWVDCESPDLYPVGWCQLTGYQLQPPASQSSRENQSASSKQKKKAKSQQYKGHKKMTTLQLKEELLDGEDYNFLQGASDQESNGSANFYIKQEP

| Binder | binding result [1] | Kd (His-MBTD1) [nM] | stoichiometry N (His-MBTD1) |
| --- | --- | --- | --- |
| AKRHRK(Me)VLRDN [H4K20me1 peptide] | binds |  |  |
| QGFVSKTLDSASAQFAASALVTSEQLMGF (domain or fragment, UniProt Q9H2F5 644-672, looked up) [GST-EPC1(644-672)] |  | ~67 | ~1.3 |

Source: publication doi:10.1101/746180 (bioRxiv, 2020)
